We go through 31 molecules from WO2015087187A1 (dated 2015).

Changes are numbered by the printed parent chain.

The target in assay [1] is T1, recombinant human SOST (rhSOST) (human, UniProt Q9BQB4 24-213).
T1 construct: Treated as one molecule; also called recombinant human SOST protein; human sclerostin
T1 sequence: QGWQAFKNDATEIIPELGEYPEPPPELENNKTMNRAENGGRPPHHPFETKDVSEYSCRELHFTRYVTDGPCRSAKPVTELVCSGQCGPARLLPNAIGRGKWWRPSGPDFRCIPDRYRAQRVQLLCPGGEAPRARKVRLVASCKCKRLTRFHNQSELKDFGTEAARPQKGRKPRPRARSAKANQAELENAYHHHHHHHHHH
Put plainly: SPR Biacore T200, IgG captured via anti-human Fc, rhSOST analyte, 37 C. In general terms: SPR reads the build-up and loss of mass on a sensor chip optically.

Assay [2] addresses T1, recombinant human SOST (rhSOST). Briefly: cell-based or functional assay.

B1: DP99 (antibody, V domains shown)
VH: EVMLAESGGGLVQPGGSLQLSCAASGFTFSIYAMSWVRQTPEKRLEWVATISGGDTYTYYADSVKGRFTISRDNAKNTLYLHMTGLRSEDTALYYCARHGYDDFDYWGLGTTLTVSS
VL: DVVLTQIPLTLSVTIGQPATISCKSSQSLLDNDGETYLNWLLVRPGQSPKRLIYQVSKLDSGFPERFTGGGSGTDFTLKISRVEAEDLGIYYCWQGTHFPHTFGGGTKLEIK
notes: also called pH99/pL99
Broadly, the Kd is the constant that tells how readily two partners part at equilibrium. In general, koff refers to the first-order rate constant of dissociation. What is called kon is the second-order rate constant of association. On to B1, for which, in assay [1], the equilibrium dissociation constant (Kd) is 0.103 nM, the koff is 0.003 s⁻¹ and the kon came to 2.9e+07 M⁻¹ s⁻¹. In assay [2], the “EC50, neutralization of rhSOST-mediated inhibition of Wnt-10B luciferase reporter activity in U-2OS-TF-Wnt10B cells” value is 5.95 ug/ml (printed 'Mg/ml') and the “EC50, restoring WNT10b-stimulated luciferase activity suppressed by 1 ug/ml rhSOST in U2OS TOPFlash cells” value was 37 nM.

B2: DM1 (antibody, V domains shown)
VH: EVQLLESGGGLVQPGGSLRLSCAASGHTFSDYWMQWVRQAPGKGLEWVGAIYPGDGDTRYNQKFKDRFTISRDNSKNTLYLQMNSLRAEDTAVYYCARSMDYWGQGTLVTVSS
VL: DIVMTQSPDSLAVSLGERATINCRASKTVDSYGNSFMHWFQQKPGQPPKLLIHHSSNLESGVPDRFSGSGSGTDFTLTISSLQAEDVAVYYCLQTIEHPYTFGQGTKLEIK
notes: also called mH10/mL4
In the case of B2, in assay [1], the Kd was 0.566 nM, the koff turned out to be 0.000741 s⁻¹ and the kon was 1.31e+06 M⁻¹ s⁻¹.

B3: DM18 (antibody, V domains shown)
VH: B2 VH with S30T, V48I
VL: B2 VL with E97D, H98E
notes: also called wt/mL8
For B3, in assay [1], the Kd turned out to be 0.179 nM, the koff came out at 0.00104 s⁻¹ and the association rate constant (kon) is 5.81e+06 M⁻¹ s⁻¹.

B4: DM24 (antibody, V domains shown)
VH: B2 VH with H27F, V48I
VL: B2 VL with H53Y, H98D
notes: also called mH3/mL2
In the case of B4, in assay [1], the Kd is 0.035 nM, the off-rate (koff) turned out to be 0.000239 s⁻¹ and the kon is 6.9e+06 M⁻¹ s⁻¹.

B5: DM2 (antibody, V domains shown)
VH: B2 VH
VL: B2 VL with H53Y
notes: also called mH10/mL14
Consider B5, for which, in assay [1], the Kd was 0.321 nM, the koff worked out at 0.000797 s⁻¹ and the kon was 2.48e+06 M⁻¹ s⁻¹.

B6: DM3 (antibody, V domains shown)
VH: B2 VH
VL: B2 VL with F40Y, H53Y
notes: also called mH10/mL15
Consider B6, for which, in assay [1], the Kd is 1.84 nM, the koff stood at 0.00285 s⁻¹ and the kon was 1.55e+06 M⁻¹ s⁻¹.

B7: DM6 (antibody, V domains shown)
VH: B2 VH
VL: B2 VL with F40Y, H53Y, H98F
notes: also called mH10/mL17
As to B7, in assay [1], the Kd is 1.18 nM, the koff was determined as 0.00251 s⁻¹ and the kon stood at 2.12e+06 M⁻¹ s⁻¹.

B8: DM26 (antibody, V domains shown)
VH: B2 VH with S30T, V48I, G49S
VL: B2 VL with H98D
notes: also called mH5/wt
With B8, in assay [1], the Kd stood at 0.053 nM, the koff was 0.000222 s⁻¹ and the kon stood at 4.2e+06 M⁻¹ s⁻¹.

B9: DM12 (antibody, V domains shown)
VH: B2 VH with S30T, V48I
VL: B2 VL with F40Y, H98D
notes: also called wt/mL1
Consider B9, for which, in assay [1], the Kd amounted to 0.009 nM, the koff is 5.62e-05 s⁻¹ and the kon was determined as 6.55e+06 M⁻¹ s⁻¹.

B10: DM16 (antibody, V domains shown)
VH: B2 VH with S30T, V48I
VL: B2 VL with H98D, P99H
notes: also called wt/mL5
As for B10, in assay [1], the Kd came to 0.207 nM, the koff was determined as 0.000817 s⁻¹ and the kon worked out at 3.94e+06 M⁻¹ s⁻¹.

B11: DM29 (antibody, V domains shown)
VH: B2 VH
VL: B2 VL with H53Y, H98D
notes: also called mH10/mL2
On to B11, for which, in assay [1], the Kd turned out to be 0.014 nM, the koff turned out to be 0.000101 s⁻¹ and the kon is 7.41e+06 M⁻¹ s⁻¹.

B12: DM11 (antibody, V domains shown)
VH: B2 VH with S30T, V48I
VL: B2 VL with H98D
notes: also called wt/wt
For the molecule B12, in assay [1], the Kd was less than 0.0016 nM, the off-rate (koff) was less than 2.8e-05 s⁻¹ and the kon stood at 1.7e+07 M⁻¹ s⁻¹.

B13: DM5 (antibody, V domains shown)
VH: B2 VH
VL: B2 VL with H53Y, H98F
notes: also called mH10/mL16
Regarding B13, in assay [1], the Kd is 0.193 nM, the koff is 0.000754 s⁻¹ and the association rate constant (kon) came out at 3.91e+06 M⁻¹ s⁻¹.

B14: DM15 (antibody, V domains shown)
VH: B2 VH with S30T, V48I
VL: B2 VL
notes: also called wt/mL4
B14: in assay [1], the Kd was 0.08 nM, the koff was 0.000297 s⁻¹ and the kon worked out at 3.72e+06 M⁻¹ s⁻¹.

B15: DM23 (antibody, V domains shown)
VH: B2 VH with H27F, V48I
VL: B2 VL with H98D
notes: also called mH3/wt
Take B15: in assay [1], the Kd turned out to be 0.01 nM, the koff is 0.000134 s⁻¹ and the association rate constant (kon) stood at 1.39e+07 M⁻¹ s⁻¹.

B16: DM33 (antibody, V domains shown)
VH: B2 VH with H27F
VL: B2 VL with F40Y, H53Y
notes: also called mH11/mL15
Turning to B16, in assay [1], the Kd is 0.093 nM, the koff is 0.000563 s⁻¹ and the kon was determined as 6.03e+06 M⁻¹ s⁻¹.

B17: DM19 (antibody, V domains shown)
VH: B2 VH with S30T, V48I
VL: B2 VL with H98F, P99H
notes: also called wt/mL10
As to B17, in assay [1], the Kd stood at 0.096 nM, the koff came out at 0.000388 s⁻¹ and the kon came out at 4.06e+06 M⁻¹ s⁻¹.

B18: DM9 (antibody, V domains shown)
VH: B2 VH
VL: B2 VL with N34S, S35N, F40Y, H53Y
notes: also called mH10/mL18
In the case of B18, in assay [1], the Kd is 2.32 nM, the koff is 0.00434 s⁻¹ and the kon is 1.87e+06 M⁻¹ s⁻¹.

B19: DM31 (antibody, V domains shown)
VH: B2 VH
VL: B2 VL with F40Y, H53Y, H98D, P99S
notes: also called mH10/mL19
As for B19, in assay [1], the Kd stood at 0.816 nM, the koff turned out to be 0.00171 s⁻¹ and the kon came out at 2.1e+06 M⁻¹ s⁻¹.

B20: DM14 (antibody, V domains shown)
VH: B2 VH with S30T, V48I
VL: B2 VL with F40Y, H53Y, H98D
notes: also called wt/mL3
For the molecule B20, in assay [1], the Kd came out at 0.016 nM, the koff worked out at 8.31e-05 s⁻¹ and the kon stood at 5.22e+06 M⁻¹ s⁻¹.

B21: DM7 (antibody, V domains shown)
VH: B2 VH with H27F
VL: B2 VL with H53Y
notes: also called mH11/mL14
Take B21: in assay [1], the Kd came to 0.966 nM, the koff stood at 0.00402 s⁻¹ and the kon was determined as 4.16e+06 M⁻¹ s⁻¹.

B22: DM28 (antibody, V domains shown)
VH: B2 VH with S30T, V48I, N61A, K63S, F64V, D66G
VL: B2 VL with H98D
notes: also called mH8/wt
For the molecule B22, in assay [1], the Kd is 0.099 nM, the koff worked out at 0.00035 s⁻¹ and the kon worked out at 3.52e+06 M⁻¹ s⁻¹.

B23: DM32 (antibody, V domains shown)
VH: B2 VH with H27F
VL: B2 VL with H53Y, H98D
notes: also called mH11/mL2
As to B23, in assay [1], the Kd is 0.054 nM, the koff came out at 0.000419 s⁻¹ and the kon worked out at 7.75e+06 M⁻¹ s⁻¹.

B24: DM25 (antibody, V domains shown)
VH: B2 VH with S30T
VL: B2 VL with H98D
notes: also called mH4/wt
Regarding B24, in assay [1], the Kd came out at 0.017 nM, the koff came out at 0.000101 s⁻¹ and the kon came out at 5.81e+06 M⁻¹ s⁻¹.

B25: DM20 (antibody, V domains shown)
VH: B2 VH with V48I
VL: B2 VL with H98D
notes: also called mH1/wt
Turning to B25, in assay [1], the Kd is 0.015 nM, the koff is 0.00012 s⁻¹ and the kon was 7.83e+06 M⁻¹ s⁻¹.

B26: DM30 (antibody, V domains shown)
VH: B2 VH
VL: B2 VL with F40Y, H53Y, H98D
notes: also called mH10/mL3
Take B26: in assay [1], the Kd was 0.045 nM, the koff is 0.000239 s⁻¹ and the kon was 5.34e+06 M⁻¹ s⁻¹.

B27: DM17 (antibody, V domains shown)
VH: B2 VH with S30T, V48I
VL: B2 VL with H98D, P99S
notes: also called wt/mL6
For the molecule B27, in assay [1], the Kd worked out at 0.044 nM, the koff stood at 0.000207 s⁻¹ and the kon is 4.7e+06 M⁻¹ s⁻¹.

B28: DM22 (antibody, V domains shown)
VH: B2 VH with H27F, S30T, V48I
VL: B2 VL with H98D
notes: also called mH2/wt
As for B28, in assay [1], the Kd came out at 0.015 nM, the koff stood at 0.000152 s⁻¹ and the kon was 1.04e+07 M⁻¹ s⁻¹.

B29: DM13 (antibody, V domains shown)
VH: B2 VH with S30T, V48I
VL: B2 VL with H53Y, H98D
notes: also called wt/mL2
As to B29, in assay [1], the Kd is less than 0.0016 nM, the koff was less than 2.8e-05 s⁻¹ and the kon is 1.72e+07 M⁻¹ s⁻¹.

B30: DM8 (antibody, V domains shown)
VH: B2 VH with H27F
VL: B2 VL with F40Y, H53Y, H98F
notes: also called mH11/mL17
On to B30, for which, in assay [1], the Kd turned out to be 2.93 nM, the koff came to 0.007 s⁻¹ and the kon was 2.39e+06 M⁻¹ s⁻¹.

B31: DM34 (antibody, V domains shown)
VH: B2 VH with H27F
VL: B2 VL with F40Y, H53Y, H98D, P99S
notes: also called mH11/mL19
For the molecule B31, in assay [1], the Kd was 1.65 nM, the koff was 0.00356 s⁻¹ and the kon was found to be 2.16e+06 M⁻¹ s⁻¹.
